According to patent US20230149516A1, “USE OF PEPTIDYLGLYCINE ALPHA-AMIDATING MONOOXYGENASE (PAM) FOR THERAPEUTIC PURPOSE” (PAM THERAGNOSITICS GMBH, priority 2020, published 2023):

Assays:
[1] = test system: PAM activity; experiment: Circulating PAM activity in rats after intravenous injection of PAM, ascorbate or both, measured without exogenous ascorbate; format: in vivo, Wistar rats
[2] = test system: endogenous human ADM-Gly; experiment: Conversion of endogenous ADM-Gly to bio-ADM in human Li-Heparin plasma with exogenous recombinant PAM; format: biochemical; settings: 37° C.
Description: ADM-Gly was quantified as based on Weber et al. (Weber et al. 2017. JALM 2(2): 222-233) for bioactive ADM with the following modifications: the tracer-antibody used for ADM-Gly detection, labelled with MACN-acridinium-NHS, was directed to the C-terminal glycine of ADM-Gly. The assay was calibrated with synthetic ADM-Gly. The limit of detection (LOD) was 10 pg/mL of ADM-Gly. Cross-reactivity of antibody directed to the C-terminal glycine of ADM with bio-ADM was in the range between 6 and 50% in a concentration dependent manner. All determined ADM-Gly concentrations were corrected for cross-reactivity as follows: For each ADM-Gly quantification additional quantification of bio-ADM in corresponding samples was performed using the Sphingotest® bio-ADM immunoassay. […] The determined signal (RLU) was used to calculate the false-positive ADM-Gly concentration (pg/mL) using the ADM-Gly calibration curve. This concentration was subtracted from the initially determined ADM-Gly concentration.
In a further experiment we investigated the formation of bio-ADM from endogenous ADM-Gly by native human plasma PAM and the effect of addition of exogenous recombinant human PAM. […] The concentration of bio-ADM in the reaction sample was quantified using the Sphingotest® bio-ADM immunoassay as described recently (Weber et al. 2017. JALM 2(2): 222-233). […]

[3] = test system: circulating ADM-Gly; experiment: bio-ADM increase after administration of recombinant human PAM in rats (example 9); format: in vivo, Wistar-rat; settings: intravenously administered recombinant human PAM
Experimental: Two animals (Wistar-rat, male, 2-3 month of age) received 17 μg of recombinant human PAM (see example 1) as a single dose in a total volume of 500 μl (in phosphate-buffered saline). One control-animal received 500 μl of PBS. Blood sampling (Li-Heparin Plasma) was carried out 30 min prior to application and 30 min, 2 h, 4 h, 8 h, 24 h and 48 h, respectively, after application.

[4] = Half-life of recombinant PAM in rats (example 10, one-phase decay model); format: in vivo; settings: example 10, single i.v. dose, FIG. 22
Experimental: FIG. 22: Half-life of recombinant PAM in rats, determined from one-phase decay model.
Endotoxin-free, recombinant PAM (SinoBiological) was buffer exchanged into sterile phosphate buffer saline (PBS, Dulbecco) and adjusted to 50 μg/mL. Sterile ascorbate solution for injection (200 mg/mL, vitamin C 1000, WÖRWAG Pharma) was purchased in a local pharmacy and adjusted under sterile conditions with PBS to 40 mg/mL. For combined injections of PAM and ascorbate, the compounds were prepared separately in equal volumes (100 μg/mL or 80 mg/mL for PAM and ascorbate, respectively). Both compounds were combined directly prior to injection to result in concentrations of 50 μg/mL for PAM and 40 mg/mL for ascorbate. Sterile PBS was used as placebo. All samples were stored at −80° C. until use. Animals, male Wistar rats, 2-3 month of age, were assigned into 4 groups (placebo, ascorbate, PAM, PAM+ascorbate) with 3 animals per group. Each animal in the individual group received 500 μl of the respective compound intravenously as a single dose injection. Blood sampling was performed as Li-Heparin 30 min prior to and 15, 30, 45, 60, 120, 180, 240 and 300 min post injection. PAM activities were determined as described in example 3.

[5] = test system: bio-ADM; experiment: Circulating bio-ADM concentration in rats after intravenous injection of PAM, ascorbate or both; format: in vivo, Wistar rats

B1: recombinant human PAM: Recombinant human peptidylglycine alpha-amidating monooxygenase, aa 21-834, SEQ ID No. 10 (Example 1); Example 10 used endotoxin-free recombinant PAM from SinoBiological (protein, listed as Homo sapiens)
chain: SPLSVFKRFKETTRPFSNECLGTTRPVVPIDSSDFALDIRMPGVTPKQSDTYFCMSMRIPVDEEAFVIDFKPRASMDTVHHMLLFGCNMPSSTGSYWFCDEGTCTDKANILYAWARNAPPTRLPKGVGFRVGGETGSKYFVLQVHYGDISAFRDNNKDCSGVSLHLTRLPQPLIAGMYLMMSVDTVIPAGEKVVNSDISCHYKNYPMHVFAYRVHTHHLGKVVSGYRVRNGQWTLIGRQSPQLPQAFYPVGHPVDVSFGDLLAARCVFTGEGRTEATHIGGTSSDEMCNLYIMYYMEAKHAVSFMTCTQNVAPDMFRTIPPEANIPIPVKSDMVMMHEHHKETEYKDKIPLLQQPKREEEEVLDQGDFYSLLSKLLGEREDVVHVHKYNPTEKAESESDLVAEIANVVQKKDLGRSDAREGAEHERGNAILVRDRIHKFHRLVSTLRPPESRVFSLQQPPPGEGTWEPEHTGDFHMEEALDWPGVYLLPGQVSGVALDPKNNLVIFHRGDHVWDGNSFDSKFVYQQIGLGPIEEDTILVIDPNNAAVLQSSGKNLFYLPHGLSIDKDGNYWVTDVALHQVFKLDPNNKEGPVLILGRSMQPGSDQNHFCQPTDVAVDPGTGAIYVSDGYCNSRIVQFSPSGKFITQWGEESSGSSPLPGQFTVPHSLALVPLLGQLCVADRENGRIQCFKTDTKEFVREIKHSSFGRNVFAISYIPGLLFAVNGKPHFGDQEPVQGFVMNFSNGEIIDIFKPVRKHFDMPHDIVASEDGTVYIGDAHTNTVWKFTLTEKLEHRSVKKAGIEVQEIKEAEAVVGS
- maximal elevation of PAM activity compared to placebo group (factor) ([1]; 15 minutes past injection): 6
- PAM activity compared to placebo group ([1]; 120 min past injection): not significantly different
- time of maximal elevation of PAM activity past injection ([1]; single i.v. injection): 15 min
- elevation of circulating PAM activity ([1]; single i.v. injection of 500 μl (PAM 50 μg/mL, ascorbate 40 mg/mL), vs placebo): highly significant elevation
- time PAM activity remained elevated after injection ([1]; single i.v. injection, significantly elevated for PAM and the combination): 60 min
- increase of the bio-ADM synthesis rate from endogenous human ADM-Gly (averaged factor) ([2]; 500 ng/ml exogenous recombinant PAM (approximate doubling of PAM concentration) in human Li-Heparin plasma pool with high ADM-Gly, at each time-point, vs native PAM alone): 1.8
- ADM-Gly consumption / shift of ADM-Gly/bio-ADM ratio ([2]; 500 ng/ml exogenous recombinant PAM in human Li-Heparin plasma): faster shift of the ADM-Gly/bio-ADM ratio towards bio-ADM
- time of maximum bio-ADM increase [3]: 4 h
- half-life of recombinant human PAM in rats [4]: 52.7 min
- bio-ADM concentration elevated by the factor (normalized to placebo) ([5]; after 15 min): 1.8
- bio-ADM concentration elevated by the factor (normalized to placebo) ([5]; after 30 min): 2.4
- bio-ADM concentration elevated by the factor (normalized to placebo) ([5]; after 45 min): 2
- bio-ADM concentration elevated by the factor (normalized to placebo) ([5]; after 60 min): not significantly different
- bio-ADM concentration compared to the Placebo group ([5]; after 120 minutes): not significantly different
- time of maximum bio-ADM increase ([5]; intravenously administered, example 10): 30 min
